Source: paper PMC3020918

Target: YFP(N)-Sso1p (S. cerevisiae) (UniProt P32867)
Assay: split reporter

Chain of UniProt P32867 (P32867 whole entry): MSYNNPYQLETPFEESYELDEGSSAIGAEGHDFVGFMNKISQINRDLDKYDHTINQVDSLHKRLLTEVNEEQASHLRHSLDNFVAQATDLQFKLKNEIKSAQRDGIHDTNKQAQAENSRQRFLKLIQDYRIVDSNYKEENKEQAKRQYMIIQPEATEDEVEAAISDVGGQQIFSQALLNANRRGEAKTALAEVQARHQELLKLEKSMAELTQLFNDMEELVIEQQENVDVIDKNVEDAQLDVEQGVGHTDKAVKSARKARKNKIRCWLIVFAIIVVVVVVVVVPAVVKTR

In the case of “Sec1p(658–724)-YFP(C) (from UniProt P30619 658-724) (domain or fragment)”, the percent stronger BiFC signal than Sec1p(658–724)-Sso2p is reported as 22%.
